The text below walks through data of the RNAGym collection of RNA variant scans (doi:10.1073/pnas.2313332121).

This sample holds only a part of the variants without activity.

Sequences and labels used below:
B1: TPR 5TU (parent)
chain: GGAUCUUCUCGAUCUAACAAAAAAGACAAAUCUGCCACAAAGCUUGAGAGCAUCUUCGGAUGCAGAGGCGGCAGCCUUCGGUGGCGCGAUAGCGCCAACGUUCUCAACUAUGACACGCAAAACGCGUGCUCCGUUGAAUGGAGUUUAUCAUG

In this series the parent is B1. Nature of the series: polymerase ribozyme fitness, log enrichment relative to wild type (log ratio); higher = more active; in vitro selection for triplet polymerase activity. In outline:
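Mutant libraries were PCR-built and transcribed for each subunit of a heterodimeric triplet polymerase ribozyme and selected for one round in triplicate at −7 °C, frozen, before gel excision of extended constructs and streptavidin-bead capture. Input and output libraries were Illumina-sequenced, keeping genotypes with ≥10 input reads and ≥1 read per output. Fitness is a logarithmic ratio of genotype to wild-type enrichment, in base 2, using inverse-variance-weighted replicate averages.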
Take C32U U53A G84U A120G G128U A142U: the “polymerase ribozyme fitness (log ratio)” value was not above -4.2.
For C85G G133U, the “polymerase ribozyme fitness (log ratio)” value is not above -4.2.
Consider A19U A21U C85G, for which the “polymerase ribozyme fitness (log ratio)” value is -2.46.
The value for U33C G143C was not above -4.2; that for G58U U135C was -1.62; that for G88U C99U was -4.12.
Next, U109G G133C: -2; C10U C35A A40U U44A C51U G59U G68C C87A G143U: not above -4.2; G59U C85U A150U: 1.1.
With A17G C76U, the “polymerase ribozyme fitness (log ratio)” value was -0.119.
Next, A37C G80C G92A C129A: not above -4.2.
As to A60U G70A C85U G86A, the “polymerase ribozyme fitness (log ratio)” value is not above -4.2.
As for G25U C87U C93G A138U, the “polymerase ribozyme fitness (log ratio)” value was not above -4.2.
As to C96G, the “polymerase ribozyme fitness (log ratio)” value is -0.496.
With G58C G86U U104G, the “polymerase ribozyme fitness (log ratio)” value is -1.93.
On to G67U G94C A119C U134G A147C, for which the “polymerase ribozyme fitness (log ratio)” value was not above -4.2.
The value for A28G A30U C32A C85A C95U A115U was not above -4.2; that for C132G was -3.15; that for A22U A30G G46C G50C A52C U55G C72U U82A C87A G88C U90A C99U was not above -4.2.
The value for A17G G58C U61G G71U G86C U104G G143C was not above -4.2.
The value for U15C A20U A41U C57G A98G was -1.74; that for C63A G117U A119C was 0.257; that for C54G G59U U135C A138U was not above -4.2.
A12C G58C G94C: the “polymerase ribozyme fitness (log ratio)” value is -1.43.
Next, A20U A49G A66C A73U C79U A106U A107C: not above -4.2; A19U A91G C93G U111A A137C: not above -4.2; C69A U101G G126A: -0.681.
The value for A17U G58U G74C G86A was not above -4.2; that for U53A C54A C108G G140A was not above -4.2; that for C18U C54U C93G A119C was not above -4.2.
Turning to A39C G143U, the “polymerase ribozyme fitness (log ratio)” value was -4.15.
Consider A19G G94A, for which the “polymerase ribozyme fitness (log ratio)” value was -1.06.
As for A89C U130A, the “polymerase ribozyme fitness (log ratio)” value is -3.07.
Next, A40G A41C C43A G83C C87G C96A: not above -4.2; G59C U78C G83A: -0.666; U13C A16G A19C A28U C38U U55G A73C U77C C95G: not above -4.2.
A30U G83U G88A U109C C125U G133C: the “polymerase ribozyme fitness (log ratio)” value is not above -4.2.
Next, C32U C103U: -2.66; A22U C75G: -3.65.
For the variant U151G, the “polymerase ribozyme fitness (log ratio)” value was -3.49.
For G92C U146A, the “polymerase ribozyme fitness (log ratio)” value is -0.323.
On to U55A G68C A91G A107C, for which the “polymerase ribozyme fitness (log ratio)” value was not above -4.2.
The value for U102G C116G G133C was -3.6.
Next, U31A C54G C57A C85G C123U: -3.47; G68A C93U: -4.04; U4A C103A: -2.38.
Next, C57G G83A: -1.02; A17G C27A: not above -4.2.
In the case of U15A A60G G80U C96U A122C, the “polymerase ribozyme fitness (log ratio)” value is -1.4.
Next, G58A C87A A98G A121C: not above -4.2; A39G C118U: -1.27.
Next, A21G U55G G143C: -1.59; G59A A60G G94U C95A: -1.74.
Next, A89G G92U: -2.48; C85A A91G: -3.36; U56A G84U A89C A142U: -3.24.
G50U C79G A98U C99G: the “polymerase ribozyme fitness (log ratio)” value was not above -4.2.
As to G11U C27U A29C C75U G83C G126U, the “polymerase ribozyme fitness (log ratio)” value is not above -4.2.
Next, U56C G58A G84A U145G: 0.113.
The value for A12C A30G was -3.77.
Next, C75U C93U: -0.656; C5A A16U U53A C57G U90G C95A: not above -4.2.
On to C85U A98C G117C, for which the “polymerase ribozyme fitness (log ratio)” value was found to be 0.631.
Consider A17C A39U G58A C95A G141C, for which the “polymerase ribozyme fitness (log ratio)” value was -2.82.
Next, G67C G83A: not above -4.2; G83C C105G G126A: -2.8.
Next, C35A C43U C87A G128A: not above -4.2; A40C G48C G81U C85A: -1.52; C75A G80C C105G: not above -4.2.
With A41C U55A G133A, the “polymerase ribozyme fitness (log ratio)” value was not above -4.2.
Take G68A C69G G80A U104G: the “polymerase ribozyme fitness (log ratio)” value was not above -4.2.
Next, G46A C76A G86U A121U U144G: not above -4.2; G50U C96U C99A C103G G124C C129A U144G: not above -4.2; A49U C69G C75A U90G: not above -4.2.
Next, U7A U55A C85U C114A G136C: not above -4.2; U13C G58C G67A G94C: not above -4.2; C27A C36U C87G G126C C149U: not above -4.2.
The value for A41U C54A G59A C85G was -3.6; that for U7C C18G G94A G117C was -3.67.
For C69A C76U A98U C125U, the “polymerase ribozyme fitness (log ratio)” value was -1.9.
In the case of A20C G25C G34U C54A A91G A119U A122U G124U C125G, the “polymerase ribozyme fitness (log ratio)” value is not above -4.2.
The value for C27U A47C G128U was not above -4.2; that for A17G A39C G68C C93G was not above -4.2.
The value for A49C G68A U102G A107G was not above -4.2.
